Measurements as given in PMC11985968 (Nature Communications, 2025).
Where “and” joins values, the source holds several entries; their conditions need not be identical. Equal entries are not always repeated.

Target: T1, Mycobacterium tuberculosis UvrA (Mycobacterium tuberculosis, UniProt P9WQK7 1-972)
T1 sequence: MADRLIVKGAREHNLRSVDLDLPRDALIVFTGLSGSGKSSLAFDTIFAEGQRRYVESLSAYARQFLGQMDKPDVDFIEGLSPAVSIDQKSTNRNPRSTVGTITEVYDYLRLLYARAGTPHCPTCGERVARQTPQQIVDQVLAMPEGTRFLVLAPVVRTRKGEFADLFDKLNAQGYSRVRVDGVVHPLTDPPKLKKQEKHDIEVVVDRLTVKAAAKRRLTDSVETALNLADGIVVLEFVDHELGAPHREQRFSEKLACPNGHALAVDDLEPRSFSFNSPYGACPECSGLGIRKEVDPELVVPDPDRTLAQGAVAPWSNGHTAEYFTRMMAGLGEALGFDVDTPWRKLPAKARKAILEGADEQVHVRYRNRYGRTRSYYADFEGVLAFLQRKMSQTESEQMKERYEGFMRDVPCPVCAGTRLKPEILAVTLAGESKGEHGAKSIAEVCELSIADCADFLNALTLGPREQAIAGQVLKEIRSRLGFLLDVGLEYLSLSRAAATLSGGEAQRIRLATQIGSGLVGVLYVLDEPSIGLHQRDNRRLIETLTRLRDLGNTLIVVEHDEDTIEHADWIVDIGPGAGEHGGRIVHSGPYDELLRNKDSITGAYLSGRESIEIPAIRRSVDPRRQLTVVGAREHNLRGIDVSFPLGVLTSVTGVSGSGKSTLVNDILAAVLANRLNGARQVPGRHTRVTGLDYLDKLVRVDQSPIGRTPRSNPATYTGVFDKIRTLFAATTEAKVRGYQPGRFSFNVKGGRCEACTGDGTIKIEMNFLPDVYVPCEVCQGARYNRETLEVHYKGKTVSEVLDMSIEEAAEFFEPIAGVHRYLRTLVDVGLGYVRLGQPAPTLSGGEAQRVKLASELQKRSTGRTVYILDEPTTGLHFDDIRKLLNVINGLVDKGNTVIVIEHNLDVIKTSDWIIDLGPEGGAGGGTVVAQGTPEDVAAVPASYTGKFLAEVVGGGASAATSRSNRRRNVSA
Experiment: cryo-EM structure

B1: Mycobacterium tuberculosis UvrB (enzyme)
chain: VRAGGHFEVVSPHAPAGDQPAAIDELERRINAGERDVVLLGATGTGKSATTAWLIERLQRPTLVMAPNKTLAAQLANELREMLPHNAVEYFVSYYDYYQPEAYIAQTDTYIEKDSSINDDVERLRHSATSALLSRRDVVVVASVSCIYGLGTPQSYLDRSVELKVGEEVPRDGLLRLLVDVQYTRNDMSFTRGSFRVRGDTVEIIPSYEELAVRIEFFGDEIEALYYLHPLTGEVIRQVDSLRIFPATHYVAGPERMAHAVSAIEEELAERLAELESQGKLLEAQRLRMRTNYDIEMMRQVGFCSGIENYSRHIDGRGPGTPPATLLDYFPEDFLLVIDESHVTVPQIGGMYEGDISRKRNLVEYGFRLPSACDNRPLTWEEFADRIGQTVYLSATPGPYELSQTGGEFVEQVIRPTGLVDPKVVVKPTKGQIDDLIGEIRTRADADQRVLVTTLTKKMAEDLTDYLLEMGIRVRYLHSEVDTLRRVELLRQLRLGDYDVLVGINLLREGLDLPEVSLVAILDADKEGFLRSSRSLIQTIGRAARNVSGEVHMYADKITDSMREAIDETERRRAKQIAYNEANGIDPQPLRKKIADILDQVYREADDTAVVEVGGSGRNASRGRRAQGEPGRAVSAGVFEGRDTSAMPRAELADLIKDLTAQMMAAARDLQFELAARFRDEIADLKRELRGMDAAGLK
With B1 the “stoichiometry N” value was 1 UvrB per UvrA dimer and 2 UvrB per UvrA dimer.
